Assay [1] concerns the target single chain H2A-H2B with H2A P50A/N91G (yeast). The experiment in a line: ITC; MicroCal VP-ITC, 25°C, 20 mM MES (pH 6.0), 0.5 M NaCl; chaperone (50 or 150 μM) injected into histones (5 μM scZB or 15 μM scAB and mutants) in the cell; one-site fit. (In ITC the heat of successive injections is recorded.)
Assay [2] deals with single-chain H2A.Z-H2B with H2A.Z A57P (yeast). Described as above.
In assay [3] the target is single-chain H2A.Z-H2B with H2A.Z A57P/G98N (yeast). The description is as above.
For assay [4], the target named is single-chain H2A.Z-H2B with H2A.Z G98N (yeast). The assay is described as above.
Assay [5] has as its target single-chain H2A.Z-H2B with H2A.Z RA→GNV (yeast). The assay is described as above.
The target of assay [6] is single-chain H2A.Z-H2B with H2B Y45A/M62A (yeast). The description is as above.
The target of assay [7] is yeast single-chain H2A.Z-H2B (yeast). The description is as above.
Assay [8] has the same target. The experiment in a line: ITC; 0.2 M NaCl (Table 1); Swc2-Z or Chz1-M injected into single-chain histone dimers; otherwise as the ITC methods (25°C, 20 mM MES pH 6.0).

B1: middle and C-terminal region of Chz1 (Chz1 64-153) (domain or fragment)
chain: TVEDSESDMDDAKLDALMGNEGEEEEDDLAEIDTSNIITSGRRTRGKVIDYKKTAEELDKKEPSTGSKDDVGYGEKEEDDEDEEDDDFKE
The term Kd denotes a measure of binding affinity in units of concentration. High values mean weaker binding, low ones tighter binding. As a reminder, the stoichiometry N is the number of molecules, sites or subunits per partner or assembly. For the molecule B1, the Kd in assay [1] is 160 nM; in assay [2] it was 740 nM; in assay [3] it was 3390 nM; in assay [4], 970 nM; in assay [5], 190 nM; in assay [6] it was 1120 nM. This molecule returned a Kd in assay [7] of 120 nM. In addition, the stoichiometry N in assay [1] is 1.1 sites; in assay [2], 1 sites; in assay [3] it was 1.1 sites; in assay [4], 0.9 sites; in assay [5], 1 sites; in assay [6], 0.8 sites. In assay [7], the stoichiometry N was found to be 0.9 sites.

B2: full-length Chz1 (natural protein)
chain: MSDEAKEKRELESQKESSHNKSEKSVEPKPKRRRRRNYDDYDAEVAKEETKAKNGLTKSENNGTVEDSESDMDDAKLDALMGNEGEEEEDDLAEIDTSNIITSGRRTRGKVIDYKKTAEELDKKEPSTGSKDDVGYGEKEEDDEDEEDDDFKE
In assay [7], B2 displayed a Kd of 130 nM and a stoichiometry N of 1 sites.

B3: middle region of Chz1 (Chz1 64-124) (domain or fragment)
chain: TVEDSESDMDDAKLDALMGNEGEEEEDDLAEIDTSNIITSGRRTRGKVIDYKKTAEELDKK
Regarding B3, in assay [8], the Kd is 20 nM and the stoichiometry N is 1 sites. In assay [7], this molecule showed a dissociation constant (Kd) of 1060 nM and a stoichiometry N of 1 sites.
